From US20210130436A1 (published 2021)

Experiments:
human PD-L1 on CHO cells [1] = biological target: T1, human PD-L1 on CHO cells (human, UniProt Q9NZQ7 19-290); assay: flow cytometry, CHO cells stably expressing PD-L1
T1 construct: whole, on cells; CHO cells stably expressing PD-L1; also called huPD-L1

human CTLA4 on CHO cells [2] = biological target: T2, human CTLA4 on CHO cells (human, UniProt P16410 36-223); assay: flow cytometry, CHO/CTLA4 cells; MFI relative to WT CD80
T2 construct: whole, on cells; CHO cells stably expressing CTLA4; also called huCTLA4

human PD-L1 on CHO cells [3] = biological target: T1, human PD-L1 on CHO cells; assay: flow cytometry, CHO/PD-L1 cells; MFI relative to WT CD80
human CTLA4 on CHO cells [4] = biological target: T2, human CTLA4 on CHO cells; assay: flow cytometry, CHO cells stably expressing CTLA4
[5] = biological target: T3, CD28 on Jurkat/IL2 reporter cells (human, UniProt P10747 19-220); assay: flow cytometry, Jurkat cells (CD28)
T3 construct: whole, on cells; Endogenous CD28 of Jurkat cells; also called Jurkats (CD28)

[6] = biological target: T3, CD28 on Jurkat/IL2 reporter cells; assay: flow cytometry, Jurkat cells (CD28); MFI relative to WT CD80
human PD-L1 on CHO cells [7] = biological target: T1, human PD-L1 on CHO cells; assay: flow cytometry; PD-L1 MFI over CD28 MFI
[8] = biological target: T4, human CTLA4 (huCTLA4), full-length, stably expressed on CHO cells (human, UniProt P16410 36-223); assay: flow cytometry, CHO cells expressing huCTLA4
T4 construct: whole, on cells
T4 sequence (P16410 36-223): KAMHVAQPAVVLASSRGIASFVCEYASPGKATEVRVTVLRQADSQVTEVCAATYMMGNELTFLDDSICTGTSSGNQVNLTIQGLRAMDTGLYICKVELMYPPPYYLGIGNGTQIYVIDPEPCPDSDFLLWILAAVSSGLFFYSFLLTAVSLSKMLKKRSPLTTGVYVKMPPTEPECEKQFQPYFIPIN

T2 sequence (P16410 36-223): as above
T1 sequence (Q9NZQ7 19-290): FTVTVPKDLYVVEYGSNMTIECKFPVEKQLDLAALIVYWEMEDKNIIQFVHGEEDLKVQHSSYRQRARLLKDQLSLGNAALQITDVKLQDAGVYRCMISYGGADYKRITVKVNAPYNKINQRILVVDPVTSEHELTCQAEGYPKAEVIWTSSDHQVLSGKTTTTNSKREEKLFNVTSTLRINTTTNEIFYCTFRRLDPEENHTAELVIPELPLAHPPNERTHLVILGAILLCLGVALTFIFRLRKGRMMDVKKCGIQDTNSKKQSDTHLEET

| Binder | MFI at 33.3 nM (human PD-L1 on CHO cells [1]) [MFI] | Fold change to WT CD80 (human CTLA4 on CHO cells [2]) [fold] | Fold change to WT CD80 (human PD-L1 on CHO cells [3]) [fold] | MFI at 33.3 nM (human CTLA4 on CHO cells [4]) [MFI] | MFI at 33.3 nM [5] [MFI] | Fold change to WT CD80 [6] [fold] | Ratio of PDL1:CD28 (human PD-L1 on CHO cells [7]) [ratio] | MFI at 33.3 nM [8] [MFI] |
| --- | --- | --- | --- | --- | --- | --- | --- | --- |
| variant CD80 IgV-Fc E35D/D46E/L85M (Fc fusion, not shown: a dimerising Fc or GST) VIHVTKEVKEVATLSCGHNVSVEELAQTRIYWQKDKKMVLTMMSGEMNIWPEYKNRTIFDITNNLSIVILALRPSDEGTYECVVMKYEKDAFKREHLAEVTLSVKAD | 2880 | 15.8 | 41 | 30300 | 164 | 2.5 | 18 |  |
| variant CD80 IgV-Fc M47I/A71G (Fc fusion, not shown: a dimerising Fc or GST) VIHVTKEVKEVATLSCGHNVSVEELAQTRIYWQKEKKMVLTMMSGDINIWPEYKNRTIFDITNNLSIVILGLRPSDEGTYECVVLKYEKDAFKREHLAEVTLSVKAD | 5100 | 14.5 | 72.5 | 27800 | 823 | 12.5 | 6 |  |
| variant CD80 IgV-Fc R29C/E35D/M47L/V68M/A71G/L85M (Fc fusion, not shown: small tags and cut ends; a dimerising Fc or GST) VIHVTKEVKEVATLSCGHNVSVEELAQTCIYWQKDKKMVLTMMSGDLNIWPEYKNRTIFDITNNLSIMILGLRPSDEGTYECVVMKYEKDAFKREHLAEVTLSVKAD |  |  |  |  |  |  |  | 91 |
| variant CD80 IgV-Fc M43I/M47L/A71G (Fc fusion, not shown: a dimerising Fc or GST) VIHVTKEVKEVATLSCGHNVSVEELAQTRIYWQKEKKMVLTMISGDLNIWPEYKNRTIFDITNNLSIVILGLRPSDEGTYECVVLKYEKDAFKREHLAEVTLSVKAD | 7760 | 12.2 | 110 | 23300 | 1000 | 15.2 | 8 |  |
| variant CD80 IgV-Fc E35D/M47L/A71G/L85M (Fc fusion, not shown: a dimerising Fc or GST) VIHVTKEVKEVATLSCGHNVSVEELAQTRIYWQKDKKMVLTMMSGDLNIWPEYKNRTIFDITNNLSIVILGLRPSDEGTYECVVMKYEKDAFKREHLAEVTLSVKAD | 8310 | 8.7 | 118 | 16600 | 199 | 3 | 42 |  |
| variant CD80 IgV-Fc E35D/D46E/M47I (Fc fusion, not shown: a dimerising Fc or GST) VIHVTKEVKEVATLSCGHNVSVEELAQTRIYWQKDKKMVLTMMSGEINIWPEYKNRTIFDITNNLSIVILALRPSDEGTYECVVLKYEKDAFKREHLAEVTLSVKAD | 3790 | 11.2 | 53.9 | 21400 | 1000 | 15.2 | 4 |  |
| variant CD80 IgV-Fc E35D/M43I/D46E/A71G/L85M (Fc fusion, not shown: a dimerising Fc or GST) VIHVTKEVKEVATLSCGHNVSVEELAQTRIYWQKDKKMVLTMISGEMNIWPEYKNRTIFDITNNLSIVILGLRPSDEGTYECVVMKYEKDAFKREHLAEVTLSVKAD | 7140 | 14 | 102 | 26900 | 200 | 3 | 36 |  |

Results, then the binder that gave them:

| MFI at 33.3 nM (human PD-L1 on CHO cells [1]) [MFI] | Fold change to WT CD80 (human CTLA4 on CHO cells [2]) [fold] | Fold change to WT CD80 (human PD-L1 on CHO cells [3]) [fold] | MFI at 33.3 nM (human CTLA4 on CHO cells [4]) [MFI] | MFI at 33.3 nM [5] [MFI] | Fold change to WT CD80 [6] [fold] | Ratio of PDL1:CD28 (human PD-L1 on CHO cells [7]) [ratio] | MFI at 33.3 nM [8] [MFI] | Binder |
| --- | --- | --- | --- | --- | --- | --- | --- | --- |
| 3530 | 13.7 | 50.2 | 26300 | 479 | 7.3 | 7 |  | variant CD80 IgV-Fc H18Y/E35D (Fc fusion, not shown: a dimerising Fc or GST) VIHVTKEVKEVATLSCGYNVSVEELAQTRIYWQKDKKMVLTMMSGDMNIWPEYKNRTIFDITNNLSIVILALRPSDEGTYECVVLKYEKDAFKREHLAEVTLSVKAD |
| 5630 | 13.5 | 80 | 25900 | 816 | 12.4 | 7 |  | variant CD80 IgV-Fc E35D/M47I/N48K/I61F (Fc fusion, not shown: a dimerising Fc or GST) VIHVTKEVKEVATLSCGHNVSVEELAQTRIYWQKDKKMVLTMMSGDIKIWPEYKNRTIFDFTNNLSIVILALRPSDEGTYECVVLKYEKDAFKREHLAEVTLSVKAD |
| 2700 | 14.6 | 38.5 | 27900 | 230 | 3.5 | 12 |  | variant CD80 IgV-Fc Q27L/E35D/M47V/I61V/L85M (Fc fusion, not shown: a dimerising Fc or GST) VIHVTKEVKEVATLSCGHNVSVEELALTRIYWQKDKKMVLTMMSGDVNIWPEYKNRTIFDVTNNLSIVILALRPSDEGTYECVVMKYEKDAFKREHLAEVTLSVKAD |
| 2190 | 15.8 | 31.2 | 30300 | 72.4 | 1.1 | 30 |  | variant CD80 IgV-Fc E35D/T41S/N48I (Fc fusion, not shown: a dimerising Fc or GST, also called E35D/T41S/N48T) VIHVTKEVKEVATLSCGHNVSVEELAQTRIYWQKDKKMVLSMMSGDMTIWPEYKNRTIFDITNNLSIVILALRPSDEGTYECVVLKYEKDAFKREHLAEVTLSVKAD |
|  |  |  |  |  |  |  | 17000 | variant CD80 IgV-Fc E35D/D46E/M47I/T62A/V68M/L85M/Y87C (Fc fusion, not shown: small tags and cut ends; a dimerising Fc or GST) VIHVTKEVKEVATLSCGHNVSVEELAQTRIYWQKDKKMVLTMMSGEINIWPEYKNRTIFDIANNLSIMILALRPSDEGTYECVVMKCEKDAFKREHLAEVTLSVKAD |
| 7580 | 12.6 | 108 | 24200 | 528 | 8 | 14 |  | variant CD80 IgV-Fc H18Y/E35D/M47L/A71G/A91S (Fc fusion, not shown: a dimerising Fc or GST) VIHVTKEVKEVATLSCGYNVSVEELAQTRIYWQKDKKMVLTMMSGDLNIWPEYKNRTIFDITNNLSIVILGLRPSDEGTYECVVLKYEKDSFKREHLAEVTLSVKAD |
| 2940 | 10.9 | 41.7 | 20900 | 461 | 7 | 6 |  | variant CD80 IgV-Fc E35D/M47V (Fc fusion, not shown: a dimerising Fc or GST) VIHVTKEVKEVATLSCGHNVSVEELAQTRIYWQKDKKMVLTMMSGDVNIWPEYKNRTIFDITNNLSIVILALRPSDEGTYECVVLKYEKDAFKREHLAEVTLSVKAD |
| 8170 | 11.4 | 116 | 21900 | 990 | 15 | 8 |  | variant CD80 IgV-Fc V22A/E35D/M47L/A71G (Fc fusion, not shown: a dimerising Fc or GST) VIHVTKEVKEVATLSCGHNVSAEELAQTRIYWQKDKKMVLTMMSGDLNIWPEYKNRTIFDITNNLSIVILGLRPSDEGTYECVVLKYEKDAFKREHLAEVTLSVKAD |
| 3420 | 14.4 | 48.7 | 27500 | 756 | 11.5 | 5 |  | variant CD80 IgV-Fc Q27H/E35D/M47I (Fc fusion, not shown: a dimerising Fc or GST) VIHVTKEVKEVATLSCGHNVSVEELAHTRIYWQKDKKMVLTMMSGDINIWPEYKNRTIFDITNNLSIVILALRPSDEGTYECVVLKYEKDAFKREHLAEVTLSVKAD |
|  |  |  |  |  |  |  | 86 | variant CD80 IgV-Fc Q33L/E35D/M47V/T62S/V68M/L85M (Fc fusion, not shown: small tags and cut ends; a dimerising Fc or GST) VIHVTKEVKEVATLSCGHNVSVEELAQTRIYWLKDKKMVLTMMSGDVNIWPEYKNRTIFDISNNLSIMILALRPSDEGTYECVVMKYEKDAFKREHLAEVTLSVKAD |
